In patent US20240368285A1 (HEFEI TG IMMUNOPHARMA, published 2024):

What was measured:
MICA004α3-Fc = molecular target: T1, MICA004α3-Fc (human); assay: ELISA on coated MICA*004 α3-Fc (1 µg/ml), HRP anti-human Fab secondary, OD450
T1 construct: also called MICA*004-Fc; domain α3 of MICA-004 Fc fusion protein
Protocol: (§1) After the antibodies were added, signal intensity was used for judging the binding characteristics of the antibodies and MICA and MICB.
(§2) The fusion proteins (produced in the Applicant's laboratory; an amino acid sequence of MICA002α3-Fc is as set forth in SEQ ID NO: 22; an amino acid sequence of MICA005α3-Fc is as set forth in SEQ ID NO: 24; an amino acid sequence of MICA008α3-Fc is as set forth in SEQ ID NO: 25; an amino acid sequence of MICA004α3-Fc is as set forth in SEQ ID NO: 23; an amino acid sequence of MICB001α3-Fc is as set forth in SEQ ID NO: 26; and an amino acid sequence of MICB005α3-Fc is as set forth in SEQ ID NO: 27) were diluted to a concentration of 1 μg/ml with PBS and then added into a 96-well plate in a volume of 100 μl/well. The plate was placed at 4° C. overnight. The PBS in the 96-well plate was removed by sucking. After the plate was washed with PBST (that is, PBS having a pH value of 7.2 included 0.1 volume % of Tween 20) for 6 times, PBS containing 10% of BSA was added in a volume of 200 μl/well. The plate was incubated at 37° C. for 2 hours for blocking. The blocking solution was removed. […]

[1] = molecular target: T2, MICA on human tumor cells (A-375, A549, HCT-15, MDA-MB-231) (human, UniProt Q29983 24-383); assay: flow cytometry on HCT-15 cells, Alexa-647 goat anti-human secondary, average fluorescence intensity
T2 construct: whole, on cells
T2 sequence (looked up): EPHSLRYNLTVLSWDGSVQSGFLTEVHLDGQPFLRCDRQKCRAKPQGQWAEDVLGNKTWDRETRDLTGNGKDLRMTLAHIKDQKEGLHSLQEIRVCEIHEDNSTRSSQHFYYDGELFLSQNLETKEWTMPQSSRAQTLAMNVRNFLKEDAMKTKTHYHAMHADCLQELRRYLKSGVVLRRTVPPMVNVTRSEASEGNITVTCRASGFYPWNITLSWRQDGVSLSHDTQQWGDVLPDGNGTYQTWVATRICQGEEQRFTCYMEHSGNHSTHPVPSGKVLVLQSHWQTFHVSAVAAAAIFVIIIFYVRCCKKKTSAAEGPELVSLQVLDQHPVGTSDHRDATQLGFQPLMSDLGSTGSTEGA
Protocol: (1) Tumor cells were diluted to a density of 2×10⁶/mL with PBS and then added into a 1.5 ml EP tube in a volume of 100 l/tube. 10 l/tube of goat serum was added into the EP tube; and blocking was conducted at 4° C. for 30 min. Antibody h5A1 (having a heavy chain sequence as set forth in SEQ ID NO: 11 and a light chain sequence as set forth in SEQ ID NO: 12), antibody h5A1002 (having a heavy chain sequence as set forth in SEQ ID NO: 13 and a light chain sequence as set forth in SEQ ID NO: 14), and control IgG1 (purchased from Biointron) were gradient-diluted (at a highest working concentration of 50 μg/ml, 10 gradients, diluted by 3 times for each gradient) and added. The tube was incubated at 4° C. for 30 min. 1 mL of PBS was added into the EP tube, and centrifugation was conducted 4° C. at a rate of 3,500 rpm for 5 min. The supernatant was removed. The EP tube was washed once with the PBS. The supernatant was removed after centrifugation. The cells were resuspended with PBS in a volume of 100 l/tube. An Alexa-647 labeled goat anti-human secondary antibody (purchased from Jackson lab) was added into the tube in a volume of 1 l/tube; and the plate was incubated in the dark at 4° C. for 30 min. The tube was washed twice with PBS, and the supernatant was removed after centrifugation. […]

MICB005α3-Fc = molecular target: T3, MICB005α3-Fc; assay: ELISA on coated MICB*005 α3-Fc (1 µg/ml), HRP anti-human Fab secondary, OD450
T3 construct: also called MICB*005-Fc; domain α3 of MICB-005 Fc fusion protein
T3 sequence (chain, as listed by the source limits assumed): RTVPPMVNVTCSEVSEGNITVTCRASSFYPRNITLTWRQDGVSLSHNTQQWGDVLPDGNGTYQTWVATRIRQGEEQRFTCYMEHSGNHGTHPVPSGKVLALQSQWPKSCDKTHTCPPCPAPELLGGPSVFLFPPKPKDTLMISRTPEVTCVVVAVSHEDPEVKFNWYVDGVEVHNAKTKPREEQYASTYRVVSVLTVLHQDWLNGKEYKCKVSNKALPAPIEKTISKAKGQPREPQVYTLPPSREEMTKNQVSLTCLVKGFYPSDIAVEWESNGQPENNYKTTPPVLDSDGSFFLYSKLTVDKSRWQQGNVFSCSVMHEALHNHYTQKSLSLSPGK
Protocol: as §1, §2

MICB001α3-Fc = molecular target: T4, MICB001α3-Fc; assay: ELISA on coated MICB*001 α3-Fc (1 µg/ml), HRP anti-human Fab secondary, OD450
T4 construct: also called MICB*001-Fc; domain α3 of MICB-001 Fc fusion protein
T4 sequence (chain, as listed by the source limits assumed): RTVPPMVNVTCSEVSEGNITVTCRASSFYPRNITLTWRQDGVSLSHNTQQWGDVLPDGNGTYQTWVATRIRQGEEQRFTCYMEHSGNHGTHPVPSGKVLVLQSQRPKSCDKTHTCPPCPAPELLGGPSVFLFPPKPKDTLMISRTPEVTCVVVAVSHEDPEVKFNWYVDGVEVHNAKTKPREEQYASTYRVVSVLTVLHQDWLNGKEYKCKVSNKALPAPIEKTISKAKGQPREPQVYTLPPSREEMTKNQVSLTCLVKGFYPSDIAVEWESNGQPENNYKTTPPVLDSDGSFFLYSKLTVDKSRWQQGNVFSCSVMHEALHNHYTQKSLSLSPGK
Protocol: as §1, §2

MICA005α3-Fc = molecular target: T5, MICA005α3-Fc (human); assay: ELISA on coated MICA*005 α3-Fc (1 µg/ml), HRP anti-human Fab secondary, OD450
T5 construct: also called MICA*005-Fc; domain α3 of MICA-005 Fc fusion protein
T5 sequence (chain, as listed by the source limits assumed): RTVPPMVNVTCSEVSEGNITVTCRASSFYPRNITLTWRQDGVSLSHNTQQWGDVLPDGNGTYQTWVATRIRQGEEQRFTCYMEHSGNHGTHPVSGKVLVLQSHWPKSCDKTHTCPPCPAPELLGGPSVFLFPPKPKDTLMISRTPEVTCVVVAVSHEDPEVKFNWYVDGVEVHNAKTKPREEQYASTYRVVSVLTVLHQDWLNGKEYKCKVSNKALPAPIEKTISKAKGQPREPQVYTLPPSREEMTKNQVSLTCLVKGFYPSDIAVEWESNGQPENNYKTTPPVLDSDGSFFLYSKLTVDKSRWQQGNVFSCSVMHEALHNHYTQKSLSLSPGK
Protocol: as §1, §2

[2] = molecular target: T6, MICA protein (SPR analyte) (human, UniProt Q29983 24-308, limits assumed); assay: SPR, Biacore 8K, antibody captured on protein A chip, MICA as analyte
T6 construct: also called major histocompatibility complex class I chain related polypeptide A
T6 sequence: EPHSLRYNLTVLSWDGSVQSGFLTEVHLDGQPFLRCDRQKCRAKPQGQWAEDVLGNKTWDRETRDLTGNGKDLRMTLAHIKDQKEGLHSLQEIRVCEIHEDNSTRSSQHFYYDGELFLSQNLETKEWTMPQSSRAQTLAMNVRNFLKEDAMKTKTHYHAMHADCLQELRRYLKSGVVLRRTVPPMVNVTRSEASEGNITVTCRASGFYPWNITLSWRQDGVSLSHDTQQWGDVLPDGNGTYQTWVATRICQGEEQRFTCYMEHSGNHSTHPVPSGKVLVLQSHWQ
Protocol: In a Biacore 8K (Cytiva) system, the antibody was diluted to a concentration of 10 µg/mL with running buffer (HBS-EP), and the antibody was conjugated onto a protein A (Cytiva, 29127556) chip at a flow rate of […].
Kinetic and affinity data of binding of the maternal antibody h5A1 and the affinity maturation antibody h5A1002 and MICA were detected.

MICA008α3-Fc = molecular target: T7, MICA008α3-Fc (human); assay: ELISA on coated MICA*008 α3-Fc (1 µg/ml), HRP anti-human Fab secondary, OD450
T7 construct: also called MICA*008-Fc; domain α3 of MICA-008 Fc fusion protein
T7 sequence (chain, as listed by the source limits assumed): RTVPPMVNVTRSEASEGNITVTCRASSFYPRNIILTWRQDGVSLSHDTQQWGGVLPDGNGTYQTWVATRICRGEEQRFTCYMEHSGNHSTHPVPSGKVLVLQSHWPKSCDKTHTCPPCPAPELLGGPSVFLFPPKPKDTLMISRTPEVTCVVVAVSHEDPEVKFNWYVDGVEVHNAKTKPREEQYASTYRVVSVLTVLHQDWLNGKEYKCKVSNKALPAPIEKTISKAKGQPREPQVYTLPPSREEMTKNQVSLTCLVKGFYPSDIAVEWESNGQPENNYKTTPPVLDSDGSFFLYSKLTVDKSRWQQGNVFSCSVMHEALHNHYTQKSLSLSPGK
Protocol: as §1, §2

MICA002α3-Fc = molecular target: T8, MICA002α3-Fc (human); assay: ELISA on coated MICA*002 α3-Fc (1 µg/ml), HRP anti-human Fab secondary, OD450
T8 construct: Produced in the Applicant's laboratory; also called MICA*002-Fc; domain α3 of MICA-002 Fc fusion protein
T8 sequence (chain, as listed by the source limits assumed): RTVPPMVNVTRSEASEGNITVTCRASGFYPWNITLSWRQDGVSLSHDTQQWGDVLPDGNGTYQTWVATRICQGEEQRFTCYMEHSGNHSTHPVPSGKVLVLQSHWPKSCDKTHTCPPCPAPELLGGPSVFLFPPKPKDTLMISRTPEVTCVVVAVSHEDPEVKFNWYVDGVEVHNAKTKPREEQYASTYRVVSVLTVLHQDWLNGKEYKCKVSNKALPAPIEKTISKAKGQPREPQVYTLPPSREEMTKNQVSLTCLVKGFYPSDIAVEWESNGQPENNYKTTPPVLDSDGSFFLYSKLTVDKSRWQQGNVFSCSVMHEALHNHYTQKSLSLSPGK
Protocol: as §1, §2

T1 sequence (chain, as listed by the source limits assumed): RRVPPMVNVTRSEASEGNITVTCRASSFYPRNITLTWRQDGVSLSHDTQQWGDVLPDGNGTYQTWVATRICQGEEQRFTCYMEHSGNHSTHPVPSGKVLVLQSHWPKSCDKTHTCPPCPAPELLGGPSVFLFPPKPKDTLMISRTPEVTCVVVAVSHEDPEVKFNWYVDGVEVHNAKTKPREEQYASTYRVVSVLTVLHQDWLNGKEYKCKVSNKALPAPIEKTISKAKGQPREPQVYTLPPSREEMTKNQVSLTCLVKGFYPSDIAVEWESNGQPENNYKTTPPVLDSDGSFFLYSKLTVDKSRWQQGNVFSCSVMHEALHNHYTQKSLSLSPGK

B1: maternal humanized antibody h5A1 (antibody, human IgG1, kappa, V domains shown)
VH: QVQLQESGPGLVKPSETLSLTCTVSGFSLTTYGVHWIRQPPGKGLEWIGMIWTDGTTDYNAAFISRVTISVDTSKNQFSLKLSSVTAADTAVYYCARKGHGYYYAMDYWGQGTLVTVSS
VL: EIVLTQSPGTLSLSPGERATLSCTASSSVSSSYLHWYQQKPGQAPRLLIYSTSNLASGIPDRFSGSGSGTDFTLTISRLEPEDFAVYYCHQYHRSPFTFGQGTKLEIKR
notes: Human IgG1, kappa; The full chains are stated for the ELISA and flow cytometry; also called h5A1-hIgG1; maternal antibody h5A1
In the case of B1, the “EC50 (read off the curve)” value (MICA004α3-Fc) is reported as about 0.07 µg/mL, the “EC50 (read off the curve)” value [1] is reported as about 3 µg/mL and the “EC50 (read off the curve)” value (MICB005α3-Fc) is reported as about 0.05 µg/mL. The “EC50 (read off the curve)” value (MICB001α3-Fc) was about 0.07 µg/mL, the “EC50 (read off the curve)” value (MICA005α3-Fc) was about 0.4 µg/mL and the Kd [2] was 215 nM. For the same binder, the koff [2] was 0.000641 s⁻¹, the kon [2] was 2970 M⁻¹ s⁻¹ and the binding result (MICA008α3-Fc) was “binds”. For the same binder, the “EC50 (read off the curve)” value (MICA002α3-Fc) was about 0.3 µg/mL.
